Assay [1] has as its target K6 (human). The assay is described as follows: immunoprecipitation from HCT-116 cell extract; gel region of 62 kDa or more; quantitative mass spectrometry with stable isotope-labeled peptides [panel A].
Assay [2] deals with M1 (human). The description is as above.
Assay [3] concerns the target K48 (human). The description is as above.
Assay [4] has as its target K29 (human). Described as above.
In assay [5] the target is K27 (human). Described as above.
Assay [6] concerns the target K11 (human). Described as above.
Assay [7] deals with K33 (human). Described as above.
Assay [8] concerns the target polyubiquitinated substrates (HCT-116 cell extract). Described as above.
Assay [9] concerns the target K63 (human). Described as above.
For assay [10], the target named is K6 (human). Put plainly: immunoprecipitation from HCT-116 cell extract; quantitative mass spectrometry; pie chart [panel B].
Assay [11] deals with M1 (human). Described as above.
Assay [12] addresses K48 (human). The assay is described as above.
The target of assay [13] is K29 (human). Described as above.
For assay [14], the target named is K27 (human). The description is as above.
Assay [15] concerns the target K11 (human). The assay is described as above.
Assay [16] concerns the target K33 (human). The assay is described as above.
The target of assay [17] is K63 (human). The description is as above.
For assay [18], the target named is polyubiquitinated substrates (HCT-116 cell extract). Put plainly: immunoprecipitation (Halo tag-fused wild-type monobody) from HCT-116 cell extract; gel region of 62 kDa or more; quantitative mass spectrometry with stable isotope-labeled peptides [panel A].

Substance Control IgG (antibody) had a K6 chain-derived peptide in the immunoprecipitate with K6 (human) [1] of 0 fmol. In the assay with M1 (human) [2], this substance came in with an M1 chain-derived peptide in the immunoprecipitate of 0 fmol. In addition, in the assay with K48 (human) [3], the K48 chain-derived peptide in the immunoprecipitate came to 0.04 fmol. In addition, the K29 chain-derived peptide in the immunoprecipitate with K29 (human) [4] amounted to 0 fmol. Moreover, the K27 chain-derived peptide in the immunoprecipitate in the assay with K27 (human) [5] came out at 0.03 fmol. In addition, in the assay with K11 (human) [6], the K11 chain-derived peptide in the immunoprecipitate worked out at 0.02 fmol. In the assay with K33 (human) [7], this substance yielded a K33 chain-derived peptide in the immunoprecipitate of 0 fmol. In [8], the EST peptide (…) in the immunoprecipitate worked out at 0.19 fmol and the total ubiquitin in the immunoprecipitate (EST + K63 peptides) came out at 0.19 fmol. For the same substance, the K63 chain-derived peptide in the immunoprecipitate with K63 (human) [9] is 0 fmol.
Turning to “anti-polyubiquitin monoclonal antibody FK2 (0918-2, Nippon Bio-Test)”, the percentage of this chain among the 8 ubiquitin chain-derived peptides in the immunoprecipitate (control subtracted) in the assay with K6 (human) [10] was determined as 5%; with M1 (human) [11] it was 0%; with K48 (human) [12], 60%; with K29 (human) [13], 8%; with K27 (human) [14], 0%; with K11 (human) [15] it was 7%. The percentage of this chain among the 8 ubiquitin chain-derived peptides in the immunoprecipitate (control subtracted) with K33 (human) [16] is 0%; in the assay with K63 (human) [17], 20%. The K6 chain-derived peptide in the immunoprecipitate in the assay with K6 (human) [1] came to 2.15 fmol. For the same substance, the M1 chain-derived peptide in the immunoprecipitate in the assay with M1 (human) [2] is 0.02 fmol. This substance also displayed a K48 chain-derived peptide in the immunoprecipitate in the assay with K48 (human) [3] of 29.1 fmol. Further, in the assay with K29 (human) [4], the K29 chain-derived peptide in the immunoprecipitate worked out at 3.69 fmol. Further, the K27 chain-derived peptide in the immunoprecipitate with K27 (human) [5] stood at 0.11 fmol. The substance also displayed a K11 chain-derived peptide in the immunoprecipitate with K11 (human) [6] of 3.62 fmol. Moreover, the K33 chain-derived peptide in the immunoprecipitate with K33 (human) [7] is 0.2 fmol. The same substance displayed an EST peptide (…) in the immunoprecipitate in assay [8] of 106 fmol. Besides, in [8], the total ubiquitin in the immunoprecipitate (EST + K63 peptides) was determined as 116 fmol. For the same substance, the K63 chain-derived peptide in the immunoprecipitate with K63 (human) [9] is 9.59 fmol.
In the case of “anti-ubiquitin antibody P4D1 (sc-8017, Santa Cruz)”, the percentage of this chain among the 8 ubiquitin chain-derived peptides in the immunoprecipitate (control subtracted) came to 3% in the assay with K6 (human) [10]; 0% in the assay with M1 (human) [11]; 46% with K48 (human) [12]; 43% in the assay with K29 (human) [13]; 0% in the assay with K27 (human) [14]; 3% with K11 (human) [15]. Moreover, the percentage of this chain among the 8 ubiquitin chain-derived peptides in the immunoprecipitate (control subtracted) in the assay with K33 (human) [16] was determined as 0%; in the assay with K63 (human) [17], 5%. Also, the K6 chain-derived peptide in the immunoprecipitate in the assay with K6 (human) [1] came to 1.32 fmol. In the assay with M1 (human) [2], the M1 chain-derived peptide in the immunoprecipitate amounted to 0 fmol. In the assay with K48 (human) [3], this substance yielded a K48 chain-derived peptide in the immunoprecipitate of 21.8 fmol. Moreover, the K29 chain-derived peptide in the immunoprecipitate in the assay with K29 (human) [4] is 20.1 fmol. In the assay with K27 (human) [5], the K27 chain-derived peptide in the immunoprecipitate turned out to be 0.08 fmol. Besides, in the assay with K11 (human) [6], the K11 chain-derived peptide in the immunoprecipitate was determined as 1.65 fmol. The substance also came in with a K33 chain-derived peptide in the immunoprecipitate with K33 (human) [7] of 0.11 fmol. Besides, the EST peptide (…) in the immunoprecipitate in [8] was determined as 72.1 fmol. Also, in assay [8], the total ubiquitin in the immunoprecipitate (EST + K63 peptides) was determined as 74.5 fmol. The same substance registered a K63 chain-derived peptide in the immunoprecipitate with K63 (human) [9] of 2.47 fmol.
Take “wild-type Monobody (FN3) (designed binder)”: in assay [18], the EST peptide (…) in the immunoprecipitate was 12.3 fmol and the total ubiquitin in the immunoprecipitate (EST + K63 peptides) was 13 fmol.

For the origin of these results see patent US20250129143A1.
